Measurements: PMC3905668

Assays:
[1] = target: N-terminally KGN-tagged Vpr (KGN-Vpr) (UniProt P12520); assay: bimolecular fluorescence complementation (BiFC), flow cytometry on cells; conditions: 293T cells, 48 hours post-transfection; parent: est. 100; read off a plot
[2] = target: C-terminally KGC-tagged Gag (Gag-KGC); assay: as above; conditions: 293T cells, 48 hours post-transfection; parent: est. 100; read off a plot

“C-terminally KGC-tagged Gag (Gag-KGC) S487A” showed a percent of parent [1] of 35%.
“N-terminally KGN-tagged Vpr (KGN-Vpr) (from UniProt P12520) Q44E” was tested, and the percent of parent [2] was 30%.
